Positions count from the first letter of the chain named.
Assays:
Assay in all cases: interaction in ABC DLBCL cells expressing the RNF31 isoform; method not detailed
[1] = biological target: T1, RNF31 Q622L mutant expressed in ABC DLBCL cells (UniProt Q96EP0 1-1072)
T1 construct: Expressed in ABC DLBCL cells; also called RNF31 mutant
T1 sequence (looked up): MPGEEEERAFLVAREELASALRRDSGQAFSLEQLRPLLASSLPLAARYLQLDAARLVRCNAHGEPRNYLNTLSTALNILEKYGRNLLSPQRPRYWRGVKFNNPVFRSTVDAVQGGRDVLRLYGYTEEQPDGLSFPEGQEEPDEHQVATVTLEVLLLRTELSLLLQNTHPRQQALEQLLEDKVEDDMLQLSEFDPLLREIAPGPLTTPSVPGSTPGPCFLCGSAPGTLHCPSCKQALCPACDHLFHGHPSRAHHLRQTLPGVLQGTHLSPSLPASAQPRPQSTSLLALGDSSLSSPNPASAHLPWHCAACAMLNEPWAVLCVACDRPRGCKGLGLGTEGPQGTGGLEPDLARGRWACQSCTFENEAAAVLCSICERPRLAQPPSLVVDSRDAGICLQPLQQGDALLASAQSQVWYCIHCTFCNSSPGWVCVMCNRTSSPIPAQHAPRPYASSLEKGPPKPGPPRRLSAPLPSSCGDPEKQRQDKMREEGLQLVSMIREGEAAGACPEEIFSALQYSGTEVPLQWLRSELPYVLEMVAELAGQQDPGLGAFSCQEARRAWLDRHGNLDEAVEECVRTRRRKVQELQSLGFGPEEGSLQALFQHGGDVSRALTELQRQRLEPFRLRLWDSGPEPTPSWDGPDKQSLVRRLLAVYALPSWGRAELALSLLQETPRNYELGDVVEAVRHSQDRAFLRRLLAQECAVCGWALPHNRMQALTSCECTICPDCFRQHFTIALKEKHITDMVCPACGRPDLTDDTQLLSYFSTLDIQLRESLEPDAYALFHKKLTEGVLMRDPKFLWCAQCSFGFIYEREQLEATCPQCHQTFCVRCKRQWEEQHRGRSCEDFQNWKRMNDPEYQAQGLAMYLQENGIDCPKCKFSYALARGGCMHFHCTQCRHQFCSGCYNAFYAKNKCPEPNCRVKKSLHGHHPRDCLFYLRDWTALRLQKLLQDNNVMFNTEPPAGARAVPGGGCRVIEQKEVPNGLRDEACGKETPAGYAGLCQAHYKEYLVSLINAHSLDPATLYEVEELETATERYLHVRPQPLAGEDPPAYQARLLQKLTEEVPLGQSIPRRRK

[2] = biological target: T2, RNF31 Q584H mutant expressed in ABC DLBCL cells (UniProt Q96EP0 1-1072)
T2 construct: Expressed in ABC DLBCL cells; also called RNF31 mutant
T2 sequence (looked up): T1 sequence (looked up) with Q584H, L622Q

[3] = biological target: T3, wild type RNF31 expressed in ABC DLBCL cells (UniProt Q96EP0 1-1072)
T3 sequence (looked up): T1 sequence (looked up) with L622Q

Measured: binding result

B1: MALT1 (enzyme, UniProt Q9UDY8 2-824, looked up)
chain: SLLGDPLQALPPSAAPTGPLLAPPAGATLNRLREPLLRRLSELLDQAPEGRGWRRLAELAGSRGRLRLSCLDLEQCSLKVLEPEGSPSLCLLKLMGEKGCTVTELSDFLQAMEHTEVLQLLSPPGIKITVNPESKAVLAGQFVKLCCRATGHPFVQYQWFKMNKEIPNGNTSELIFNAVHVKDAGFYVCRVNNNFTFEFSQWSQLDVCDIPESFQRSVDGVSESKLQICVEPTSQKLMPGSTLVLQCVAVGSPIPHYQWFKNELPLTHETKKLYMVPYVDLEHQGTYWCHVYNDRDSQDSKKVEIIIGRTDEAVECTEDELNNLGHPDNKEQTTDQPLAKDKVALLIGNMNYREHPKLKAPLVDVYELTNLLRQLDFKVVSLLDLTEYEMRNAVDEFLLLLDKGVYGLLYYAGHGYENFGNSFMVPVDAPNPYRSENCLCVQNILKLMQEKETGLNVFLLDMCRKRNDYDDTIPILDALKVTANIVFGYATCQGAEAFEIQHSGLANGIFMKFLKDRLLEDKKITVLLDEVAEDMGKCHLTKGKQALEIRSSLSEKRALTDPIQGTEYSAESLVRNLQWAKAHELPESMCLKFDCGVQIQLGFAAEFSNVMIIYTSIVYKPPEIIMCDAYVTDFPLDLDIDPKDANKGTPEETGSYLVSKDLPKHCLYTRLSSLQKLKEHLVFTVCLSYQYSGLEDTVEDKQEVNVGKPLIAKLDMHRGLGRKTCFQTCLMSNGPYQSSAATSGGAGHYHSLQDPFHGVYHSHPGNPSNVTPADSCHCSRTPDAFISSFAHHASCHFSRSNVPVETTDEIPFSFSDRLRISEK
notes: Endogenous protein in cell lysates
binds: all assays above
